Laboratory results taken from article PMC11110689.

Target: factor inhibiting HIF (FIH), V5-tagged (FIH-V5) (UniProt Q9NWT6)
Test: immunoblot of a denaturation-resistant (SDS-PAGE) complex; cells co-transfected, 24 h at the indicated oxygen levels (18.5–1% O2), blots quantified, oxygen sensitivity calculated

UniProt Q9NWT6, sequence (Q9NWT6 whole entry): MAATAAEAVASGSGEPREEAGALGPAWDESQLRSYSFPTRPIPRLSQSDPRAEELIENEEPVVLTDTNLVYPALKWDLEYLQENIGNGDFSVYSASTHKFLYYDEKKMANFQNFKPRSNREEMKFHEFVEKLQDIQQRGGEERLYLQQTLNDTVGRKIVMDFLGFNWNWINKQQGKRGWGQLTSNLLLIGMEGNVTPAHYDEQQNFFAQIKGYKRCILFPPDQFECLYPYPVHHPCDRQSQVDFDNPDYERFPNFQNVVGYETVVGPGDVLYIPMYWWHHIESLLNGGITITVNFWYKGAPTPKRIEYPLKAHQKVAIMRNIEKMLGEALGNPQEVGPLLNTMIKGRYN

- EC50 of the oxygen level for oxomer formation: 7.6 % O2
Substance: NF-κB inhibitor β (IκBβ), FLAG-tagged (IκBβ-FLAG) (from UniProt Q15653 1-356) (natural protein)
